From the supplement of paper PMC12042874 come the findings set out here.

± gives the uncertainty stated by the source.

The data set is described as follows: amyloid nucleation score (Sup35N fusion, yeast selection) (log enrichment); library NNK2; higher = more nucleation; inactive = no reads after selection. In a few lines: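 The nucleation score is the DiMSum log enrichment of output over input reads, centred on the mode score of non-aggregating sequences. Only sequences with 100 or more input reads were scored, using Illumina sequencing of input and output plasmid inserts. Psi-negative yeast expressing Sup35N fused to peptides of 20 random codons were induced 24 hours with 100 μM copper sulfate and grown 7 days at 30°C on medium lacking adenine and uracil.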
As to FRLILWPIDCAINTNRRCNR, the amyloid nucleation score is 4.38 ± 0.051.
Turning to HCGYEAIILWGVRFCGILQR, the amyloid nucleation score is -0.357 ± 1.1.
As for IYCIFRTSKLMNGVMVHSRQ, the amyloid nucleation score is -0.454 ± 0.37.
With SGEGRLLVRWALVKVTEEKL the figure was 0.907 ± 0.58.
For the substance TFLGLS, the amyloid nucleation score was found to be 0.658 ± 0.26.
With YCKRLKQAMPHY the figure was -0.337 ± 0.63.
As for LSDRRFKDLMSTFRNAATYF, the amyloid nucleation score worked out at 6.34 ± 0.047.
On to GLVRERIDTAHPRSTSYC, for which the amyloid nucleation score was 0.561 ± 0.62.
As to ISDLCNASGWIRKDTSSRRL, the amyloid nucleation score is -0.27 ± 0.23.
With PCRRYRVLFWGGSLVSSMGK the figure was 3.3 ± 0.07.
The figure for NSTFLCLVGFFCLVFSLRQG is 3.77 ± 0.1.
DRYYRISSFYFISMTKLWD: the amyloid nucleation score result was “inactive”.
FFSVHEDRREKYLSNNV came in with an amyloid nucleation score of -2.15 ± 1.1.
With LDYFNYCSSLGFHMVSVVYV the entry was “inactive”.
With PDWMRGSSEYWSVGPRYCNS, the amyloid nucleation score was 0.355 ± 0.13.
IMCRETRLYMGMFVFDQLPQ displayed an amyloid nucleation score of 6.46 ± 0.079.
For the substance AYHNLRN, the amyloid nucleation score was found to be 0.191 ± 0.63.
VEMLFLSFMRPVLLGTMVAV displayed an amyloid nucleation score of 0.007 ± 1.1.
Substance VNAFLSLKSKACHWACGNDD displayed an amyloid nucleation score of 3.67 ± 0.055.
Substance IRSLMSR came in with an amyloid nucleation score of 2.32 ± 0.061.
Consider GIKFCEPCDGGHGDGIWPLT, for which the amyloid nucleation score was determined as 0.708 ± 0.29.
As for HCSQNYMVTRKIFSLWIPYV, the amyloid nucleation score result is “inactive”.
QRYCRA: the amyloid nucleation score was determined as 0.94 ± 0.23.
Consider GQELSGNIFIPDHLGLLSCS, for which the amyloid nucleation score was 0.744 ± 0.8.
VAILIMHCGAGSCRQMLMDS had an amyloid nucleation score of 0.305 ± 0.45.
The figure for DTRKFLDKLYA is -0.13 ± 0.44.
The figure for VSGMPIKMR is 0.886 ± 0.34; for YTRNIHMHFHRMLPNVGMAF it is “inactive”.
The figure for RLSDLTQVLLDSLTRCGWWG is 0.841 ± 0.43; for SQVTISHSNEHMVGACAVYR it is -0.456 ± 0.54; for TEPSGTGKTRGSQRTLHRYV it is -0.323 ± 0.79.
The substance FSIYYRGPRQVSTYRDLIPV displayed an amyloid nucleation score of -0.429 ± 0.37.
The substance GIWWQHNGFEYDFGNLSC had an amyloid nucleation score of -0.165 ± 0.35.
In turn, YMSGGVRKGPIAKALNFVRS had an amyloid nucleation score of -0.854 ± 0.56.
In the case of SGVWSSKSLYGKRGNSWIVV, the amyloid nucleation score is 0.053 ± 0.23.
With CGRVTTFSLRNVARVCVSAF the figure was -0.308 ± 0.25.
In turn, CHVCFRETARYMCVGWYYGS yielded an amyloid nucleation score of -0.283 ± 0.65.
Substance MSMSHSAGDRDGWIFDHRDV gave an amyloid nucleation score of 1.46 ± 0.61.
In turn, DARKNVDRSPSSLSEKVLSL showed an amyloid nucleation score of 0.642 ± 0.34.
The substance VCRPRTTNIGAWRRFRFLFW registered an amyloid nucleation score of -0.601 ± 0.41.
The substance HCVIQSSYLRD showed an amyloid nucleation score of -0.337 ± 0.54.
KETTGWLRYIP gave an amyloid nucleation score of -0.56 ± 0.56.
In the case of CFKLTNINAL, the amyloid nucleation score entry was “inactive”.
PPGFMYLYCGLYAQSSRSSW returned an amyloid nucleation score of 0.546 ± 0.5.
The figure for LALRRDLFRVVLSNKTTSTR is 1.07 ± 0.28; for SLLNTGRYCWC it is 1.05 ± 0.35; for VALFS it is -0.029 ± 0.8.
For IVLSGWLSSPSYASWDFCMR, the amyloid nucleation score was determined as 0.07 ± 0.77.
Substance VKLTLRVLLMSRTETHTVCR registered an amyloid nucleation score of 0.494 ± 0.44.
On to LKMKFSYDWGVDTILLCRKA, for which the amyloid nucleation score stood at 0.284 ± 1.1.
With CRTLSGCYQDCGAVNGVLRV the figure was 1.22 ± 0.3; with GICLSNTGRMCFG, 0.009 ± 0.39.
Turning to SFRSMIQQSAAGFYSSFIST, the amyloid nucleation score is -1.89 ± 1.1.
CTCKRLVLRVVVEWA: the amyloid nucleation score was 1.82 ± 0.12.
The figure for MGAVESGKSRSMCAVLAWSE is 1.02 ± 0.41.
RMVTVAS displayed an amyloid nucleation score of 1.68 ± 0.32.
EEYIRRQGVLTASLVYSKYI: the amyloid nucleation score result is “inactive”.
HVFMSTIKICRDQLNHQLRE displayed an amyloid nucleation score of 7.729 ± 0.037.
Substance SDGVNIMK had an amyloid nucleation score of 2.83 ± 0.18.
Turning to MNVDGNFWAGVELTYIEGSS, the amyloid nucleation score is -0.587 ± 0.79.
Substance RMNWGSNFLEE gave an amyloid nucleation score of -0.663 ± 0.32.
YRLYDRENSAICYISYTLLL: the amyloid nucleation score amounted to 2.36 ± 0.069.
With HEHSDVRKKVGWMAFWR the figure was 4.42 ± 0.06; with AYIDVTWWPFVFLDQVMYTT, 0.089 ± 0.48; with SARWYILRVFIFFIPRSAYK, -1.59 ± 0.76.
As to MDHCTFYIRGMMPRMYGCTK, the amyloid nucleation score was -0.711 ± 0.44.
With RVMFYVINEVWDMNSARTNT, the amyloid nucleation score is 6.38 ± 0.08.
For the substance KGGWNKGEPMFFLVMCMYVN, the amyloid nucleation score was found to be 4.8 ± 0.054.
The substance LPGLIGS came in with an amyloid nucleation score of 1.96 ± 0.26.
TGRITVRRGSHLSLWKSMRL gave an amyloid nucleation score of 0.697 ± 0.27.
Take VLVCRFQSIFGILVVASCVK: the amyloid nucleation score is -1.53 ± 0.55.
With LLPSSFVGGVNDVVELLSCG the figure was 0.092 ± 1.1; with YFKMSFCSFWL, 1.91 ± 0.091.
With FGRGSRLLLCAGFPLLNSYA, the amyloid nucleation score is -0.356 ± 1.1.
With TLLNAYNNTLVWIWFVSMPV the figure was 5.46 ± 0.081.
LRLIDNYMGSSRMMS: the amyloid nucleation score entry was “inactive”.
Consider PIGLYRSMATQVNCC, for which the amyloid nucleation score stood at 3.71 ± 0.094.
With FSTQGTPSSSLDWLNRLTVW, the amyloid nucleation score came to 0.102 ± 0.36.
With KLVIKLRIIYYASV the figure was 3.74 ± 0.084; with YRSFCWEQ, -0.581 ± 0.56.
TSGPLFAPPC: the amyloid nucleation score worked out at 0.402 ± 0.66.
Consider KTAFKSNTEITSPLVTVLAL, for which the amyloid nucleation score amounted to 0.555 ± 0.33.
With REFLIYFCFQIMCCRTYGPA the figure was 5.125 ± 0.046.
The entry for KRNMSCVLYIWDWHPASLLM is “inactive”.
For NMSCKFSNPWNWFD, the amyloid nucleation score was -0.11 ± 0.39.
As for GRRYSRTVEFVTF, the amyloid nucleation score turned out to be 0.692 ± 0.29.
The substance NVLGQNAQPPNMDFYVTMIC had an amyloid nucleation score of 0.508 ± 0.56.
As for LMNGVGLFNQMGWVVERYLE, the amyloid nucleation score is -0.357 ± 0.4.
With LFKMCTSVFRVCSAGMMELG, the amyloid nucleation score turned out to be 0.35 ± 0.27.
KKKYACRPAVRFLSIYCWFA had an amyloid nucleation score of 0.406 ± 0.4.
With SQMSGSFRRSNGWIAV, the amyloid nucleation score result is “inactive”.
In the case of FEIGGHIDCETGVCCGVAVM, the amyloid nucleation score worked out at 4.56 ± 0.052.
The figure for SRACVLWKGLRRAANTC is 0.984 ± 0.27.
WHGKVGRTAWCLGMLFYDVR: the amyloid nucleation score was 1.02 ± 0.2.
Substance IITGLQFLD came in with an amyloid nucleation score of -0.691 ± 0.79.
As to FVTTENLVNSLVLNMARAKK, the amyloid nucleation score turned out to be 3.44 ± 0.097.
Take CSTVLRGCVLGQYLYGYSSG: the amyloid nucleation score was -0.258 ± 0.41.
The substance VTMIPA came in with an amyloid nucleation score of -0.207 ± 0.63.
For the substance GFPLLHTGILVSNLYMLRAR, the amyloid nucleation score was -0.536 ± 1.1.
Take AYTMQLNHRLVLSVSS: the amyloid nucleation score worked out at 0.219 ± 0.74.
Substance SFFVIGW displayed an amyloid nucleation score of 0.102 ± 0.17.
With VIFIINELYGCIASNERVCA the figure was 6.281 ± 0.049.
The figure for LDDWDGKTSRIHSGFYSRLR is 0.224 ± 0.52; for CISVPMIFDFTIWA it is 6.64 ± 0.071.
Turning to PRSQYRITYDYVCCRVMYKY, the amyloid nucleation score was 0.392 ± 0.46.
Consider KASMCGMKVWKFFQYLIKMV, for which the amyloid nucleation score was -1.1 ± 0.61.
GSVGFVQYAVGNSMTSGIMV showed an amyloid nucleation score of -0.307 ± 0.2.
As for LIQSFSVLAMHDRLGCWRLR, the amyloid nucleation score is 2.74 ± 0.12.
The figure for RFWLNCCWRTCSTTFLNWMK is 0.472 ± 0.6; for VFGWS it is 0.745 ± 0.22; for VSKNYDHCELRHMECAYWYT it is 0.211 ± 0.19.
Take HRYSRCIHLVKWVWCVQMIA: the amyloid nucleation score stood at 1.29 ± 0.32.
VPTCN showed an amyloid nucleation score of 0.123 ± 0.54.
On to SSTIGVGRSLFLLMFYRDLI, for which the amyloid nucleation score is -1.44 ± 1.
For the substance FSVIICVTALVWACCCTRIV, the amyloid nucleation score was found to be 1.09 ± 0.36.
With NFIVIALRGTDNTYSLSGLS, the amyloid nucleation score is 6.407 ± 0.043.
In the case of FLVLFASVPKEVPLAYRVVK, the amyloid nucleation score is -0.898 ± 0.61.
The substance RRLWGIALYRVSLVVFGSLY showed an amyloid nucleation score of -0.354 ± 0.25.
WECLGTCDVGSCLTWRIGGR displayed an amyloid nucleation score of 2.82 ± 0.18.
For the substance GVMYSLFRNSSWGGHIMSGK, the amyloid nucleation score is 0.818 ± 0.67.
The substance VGTILAPGGLWGMEVCWQTK registered an amyloid nucleation score of 3.06 ± 0.12.
The figure for AIYKDRGWGATGHVFRILGR is 0.752 ± 0.57; for CHSGVFRVKSCTEYRMGLYS it is “inactive”.
As to CWMFVVHIAIWGGVSLDGIV, the amyloid nucleation score is 0.208 ± 1.1.
With LMCVLTIL the figure was 1.25 ± 0.32.
Regarding NGSMIKWDRFASCILHAML, the amyloid nucleation score entry was “inactive”.
AGSGFRSATWYRASTWMAFG had an amyloid nucleation score of 2.93 ± 0.13.
In turn, HYLVS had an amyloid nucleation score of 0.326 ± 0.49.
For the substance RTEDPKTDYVKRGKRKWRVW, the amyloid nucleation score was -0.129 ± 1.1.
In turn, VVNRYRNTFFCVYWTSAGVL yielded an amyloid nucleation score of 6.65 ± 0.073.
Turning to DCRVGSLSAGRQLSARAAGK, the amyloid nucleation score stood at 0.633 ± 0.41.
As for SEYALYAFE, the amyloid nucleation score is -0.173 ± 0.25.
Consider TECITVVIWVYGAISHRSGT, for which the amyloid nucleation score was -0.247 ± 0.27.
In the case of IQLMEFWLSGGLTVIMGILR, the amyloid nucleation score was -0.971 ± 0.61.
The substance SMYSYHHSYRSDTKTSNFFW returned an amyloid nucleation score of 3.4 ± 0.072.
As to YNSSCCSERSYLLSVFRISR, the amyloid nucleation score turned out to be 0.178 ± 0.17.
For IIVFKEESYIYKTRSVLGSR, the amyloid nucleation score is -0.503 ± 0.56.
With NLLWLFDV the figure was 0.19 ± 1.1.
